11 molecules from patent US20030060605A1 (LA JOLLA INSTITUTE FOR ALLERGY AND IMMUNOLOGY, published 2003) can be followed below.

Test [1] deals with HVEM:Fc fusion protein (extracellular region of HVEM, 1 to K184, fused to the Fc of human IgG1) (human) (UniProt Q92956). The test can be described thus: SPR (BIAcore 1000). (In general: In SPR one partner is held on a chip, and binding of the other changes the refractive index at the surface.)
The target of test [2] is LTβR on the surface of human cells (HT29, NHDF) (human) (UniProt P36941). The test can be described thus: cell-based or functional assay.
In test [3] the target is human LTβR:Fc (human) (UniProt P36941). The test can be described thus: SPR (BIAcore 1000), receptor:Fc amine-coupled to CM5, LIGHT mutant as analyte.
Test [4] deals with HVEM:Fc fusion protein (extracellular region of HVEM, 1 to K184, fused to the Fc of human IgG1) (human) (UniProt Q92956). The description is as above.
Test [5] concerns the target p30 (LIGHT), the 30 kDa cell surface HVEM ligand of activated II-23.D7 T hybridoma cells and human T cells (human) (UniProt O43557). The test can be described thus: competition flow cytometry: II-23.D7 cells activated with PMA and ionomycin, pre-incubated with the Fc protein, then HVEM:Fc-rabbit 2 µg/ml, goat anti-rabbit IgG-PE; competitor displaced: HVEM:rbFc [lower graph]. In general terms: Flow cytometry measures light scatter and fluorescence of single cells or particles in a stream.

In test [6] the target is HVEM:Fc fusion protein (extracellular region of HVEM, 1 to K184, fused to the Fc of human IgG1) (human) (UniProt Q92956). The test can be described thus: ELISA, receptor:Fc coated as capture (150 ng/well), FLAG-tagged ligand, M2 anti-FLAG and goat anti-mouse HRP, OD 415 [panel human HVEM:Fc]. On the technique in general: ELISA stands for enzyme-linked immunosorbent assay.
The target of test [7] is human LTβR:Fc (human) (UniProt P36941). The test can be described thus: ELISA, receptor:Fc coated as capture (150 ng/well), FLAG-tagged ligand, M2 anti-FLAG and goat anti-mouse HRP, OD 415 [panel Human LTβR:Fc].
Test [8] has as its target mouse HVEM:Fc (extracellular region of mouse HVEM, Met1 to Ser205, fused to the Fc of human IgG1) (mouse; human) (UniProt Q80WM9). The test can be described thus: ELISA, receptor:Fc as capture, M2 anti-FLAG detection.
Test [9] concerns the target mouse LTβR:Fc (residues 1 to Met221 of the extracellular domain of mouse LTβR) (mouse) (UniProt P50284). Described as above.
For test [10], the target named is human LTβR:Fc (human) (UniProt P36941). The test can be described thus: SPR (BIAcore 1000), receptor:Fc amine-coupled to CM5, LIGHT as analyte 100-500 nM.
Test [11] concerns the target HVEM:Fc fusion protein (extracellular region of HVEM, 1 to K184, fused to the Fc of human IgG1) (human) (UniProt Q92956). The test is described as above.
Test [12] concerns the target mouse HVEM:Fc (extracellular region of mouse HVEM, Met1 to Ser205, fused to the Fc of human IgG1) (mouse; human) (UniProt Q80WM9). The test can be described thus: ELISA, receptor:Fc coated as capture (150 ng/well), FLAG-tagged ligand, M2 anti-FLAG and goat anti-mouse HRP, OD 415 [panel mouse HVEM:Fc].
Test [13] has as its target T1, HVEM:Fc fusion protein (extracellular region of HVEM, 1 to K184, fused to the Fc of human IgG1) (human, UniProt Q92956 39-184).
T1 construct: range 1-184; Made in the baculovirus vector pVL1392; Residues 1-184 include the signal peptide; also called huHVEM:Fc; hu HVEM:Fc; not shown: Fc of human IgG1
T1 sequence (looked up): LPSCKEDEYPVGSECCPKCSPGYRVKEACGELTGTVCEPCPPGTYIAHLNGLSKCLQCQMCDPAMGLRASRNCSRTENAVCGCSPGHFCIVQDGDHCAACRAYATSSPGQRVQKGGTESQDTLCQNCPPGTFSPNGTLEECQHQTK
The test can be described thus: competition flow cytometry: HVEM:Fc 2 µg/ml pre-incubated with the gD-1 protein 30 min at 4 C, then added to II-23.D7 cells activated with PMA and ionomycin (p30 on the cells) [lower graph].

The target in test [14] is LTβR on the surface of human cells (HT29, NHDF) (human, UniProt P36941 31-435). The test can be described thus: cell-based or functional assay.
The target in test [15] is T1, HVEM:Fc fusion protein (extracellular …). The test can be described thus: competition flow cytometry: HVEM:Fc pre-incubated with the ligand, then added to II-23.D7 cells activated with PMA and ionomycin (p30 on the cells), anti-huIgG-PE [lower graph].
The target is the same in test [16]. The test can be described thus: competition flow cytometry: HVEM:Fc pre-incubated with the ligand 30 min at 4 C, then added to II-23.D7 cells activated with PMA and ionomycin (p30 on the cells), anti-huIgG-PE [lower graph].
Test [17] deals with T2, p30 (LIGHT), the 30 kDa cell surface HVEM ligand of activated II-23.D7 T hybridoma cells and human T cells (human, UniProt O43557 1-240).
T2 construct: whole, on cells; On the cell surface in flow cytometry; in NP40 detergent extracts in the precipitations
T2 sequence (O43557 whole entry): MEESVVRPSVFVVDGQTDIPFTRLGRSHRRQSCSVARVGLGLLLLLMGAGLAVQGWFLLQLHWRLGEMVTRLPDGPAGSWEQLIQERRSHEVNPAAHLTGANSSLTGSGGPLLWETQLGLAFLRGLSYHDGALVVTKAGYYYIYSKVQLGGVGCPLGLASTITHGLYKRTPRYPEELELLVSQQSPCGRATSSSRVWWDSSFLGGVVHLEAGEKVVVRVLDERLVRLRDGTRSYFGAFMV
The test can be described thus: competition flow cytometry: II-23.D7 cells activated with PMA and ionomycin, pre-incubated with the Fc protein, then HVEM:Fc-rabbit 2 µg/ml, goat anti-rabbit IgG-PE [lower graph].

Sequence of mouse LTβR:Fc (residues 1 to Met221 of the extracellular domain of mouse LTβR) (mouse) (P50284 31-221): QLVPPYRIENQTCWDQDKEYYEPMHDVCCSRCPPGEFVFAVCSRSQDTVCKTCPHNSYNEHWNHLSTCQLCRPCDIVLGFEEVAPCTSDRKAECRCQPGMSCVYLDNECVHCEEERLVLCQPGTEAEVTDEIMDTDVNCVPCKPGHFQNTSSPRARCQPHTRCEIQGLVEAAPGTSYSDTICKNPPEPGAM
Sequence of p30 (LIGHT), the 30 kDa cell surface HVEM ligand of activated II-23.D7 T hybridoma cells and human T cells (human) (O43557 whole entry): as the sequence (O43557 whole entry) above

One may read the Kd as a measure of binding affinity in units of concentration. Read a low Kd as tighter binding. As a reminder, the koff is the rate constant with which the complex falls apart. Low readings indicate a long-lived complex, high ones a short-lived complex. As usually defined, the kon is the rate constant with which the complex forms. In the case of LIGHTt66-FLAG mutant Y173F (ligand), in [1], the Kd is 180 nM and the fold lower affinity than LIGHT t66 was over 40 fold. Also, in test [2], the 50% cell death of HT29 cells (MTT, 72 h, with IFNγ) came out at 0.001 µM and the up-regulation of ICAM expression by NHDF cells (fold induction, flow cytometry) was 2.5 fold. In the test with human LTβR:Fc (human) [3], this molecule yielded a Kd of 31 nM, a koff of 0.0011 s⁻¹ and a kon of 37000 M⁻¹ s⁻¹. In addition, in [4], the Kd is 173 nM, the koff came out at 0.0033 s⁻¹ and the association rate constant (kon) was 19000 M⁻¹ s⁻¹.

Regarding “LTβR:Fc (as printed in Examples 1 to 4; human or mouse not said) (Fc fusion)”, in test [5], the IC50 (read off the curve) was determined as 10 µg/mL.

By EC50 (read off the curve) is commonly meant the concentration at which the effect is half-maximal. Read a low EC50 (read off the curve) as a more potent agent. In the case of LIGHTt66-FLAG mutant L120Q (ligand), the EC50 (read off the curve) in [6] turned out to be 0.08 nM. In [2], this molecule displayed a 50% cell death of HT29 cells (MTT, 72 h, with IFNγ) of 10 µM.

Consider “LIGHTt66-FLAG, recombinant soluble homotrimeric LIGHT lacking the N-terminal 66 amino acids (ligand)”, for which the EC50 (read off the curve) in the test with human LTβR:Fc (human) [7] was 0.3 nM. In test [8], the fold lower affinity (against the human receptors) was determined as 10 fold. The molecule also came in with a fold lower affinity (against the human receptors) in [9] of 10 fold. In addition, in test [2], the IC50 for inhibition of pp28 expression (HCMV infected NHDF, western blot) is 0.4 nM; the concentration that completely inhibits the cytopathic effect of HCMV was 100 pM; the dose for 50% cytotoxicity to HT29 cells (MTT, with IFNγ) was in the range of 10 to 100 pM; the up-regulation of ICAM expression by NHDF cells (fold induction, flow cytometry) turned out to be 4 fold. For the same molecule, in the test with human LTβR:Fc (human) [10], the Kd is 4.5 nM, the koff worked out at 0.00012 s⁻¹ and the kon amounted to 27000 M⁻¹ s⁻¹. Also, in test [11], the Kd came to 3.9 nM, the koff stood at 4.8e-05 s⁻¹ and the kon came to 12000 M⁻¹ s⁻¹.

In test [12], LIGHTt66-FLAG mutant Q117T (ligand) displayed an EC50 (read off the curve) of 0.9 nM. Besides, the 50% cell death of HT29 cells (MTT, 72 h, with IFNγ) in test [2] is 10 µM. For the same molecule, in the test with human LTβR:Fc (human) [3], the equilibrium dissociation constant (Kd) worked out at 1.5 nM and the koff was determined as 4.5e-05 s⁻¹. In [4], this molecule gave an equilibrium dissociation constant (Kd) of 0.3 nM and a kon of 20000 M⁻¹ s⁻¹.

In test [1], LIGHTt66-FLAG mutant G119E (ligand) yielded a fold lower affinity than LIGHT t66 of 30 fold. In addition, in test [2], the up-regulation of ICAM expression by NHDF cells (fold induction, flow cytometry) was under 1.5 fold. In test [4], this molecule registered a Kd of 114 nM, a koff of 0.002 s⁻¹ and a kon of 18000 M⁻¹ s⁻¹.

B1: soluble HSV gD-1 (glycoprotein D of HSV-1) (ligand)
chain: KYALVDASLKMADPNRFRGKDLPVLDQLTDPPGVRRVYHIQAGLPDPFQPPSLPITVYYAVLERACRSVLLNAPSEAPQIVRGASEDVRKQPYNLTIAWFRMGGNCAIPITVMEYTECSYNKSLGACPIRTQPRWNYYDSFSAVSEDNLGFLMHAPAFETAGTYLRLVKINDWTEITQFILEHRAKGSCKYALPLRIPPSACLSPQAYQQGVTVDSIGMLPRFIPENQRTVAVYSLKIAGWHGPKAPYTSTLLPPELSETPNATQPELAPEDPEDSALLEDPVGTVAPQIPPNWHIPSIQDAATPY
For the molecule B1, the “IC50 (read off the curve)” value in test [13] is about 20 µg/mL.

B2: gD-1 (Δ290-299t), mutant of soluble HSV gD-1 (ligand)
chain: KYALVDASLKMADPNRFRGKDLPVLDQLTDPPGVRRVYHIQAGLPDPFQPPSLPITVYYAVLERACRSVLLNAPSEAPQIVRGASEDVRKQPYNLTIAWFRMGGNCAIPITVMEYTECSYNKSLGACPIRTQPRWNYYDSFSAVSEDNLGFLMHAPAFETAGTYLRLVKINDWTEITQFILEHRAKGSCKYALPLRIPPSACLSPQAYQQGVTVDSIGMLPRFIPENQRTVAVYSLKIAGWHGPKAPYTSTLLPPELSETPNATQPELAPEDPEDSALLEDPVGTVAPQQDAATPY
B2: the “IC50 (read off the curve)” value in [13] was about 6 µg/mL.

B3: recombinant soluble LTα1β2 (ligand)
chain 1: LPGVGLTPSAAQTARQHPKMHLAHSTLKPAAHLIGDPSKQNSLLWRANTDRAFLQDGFSLSNNSLLVPTSGIYFVYSQVVFSGKAYSPKATSSPLYLAHEVQLFSSQYPFHVPLLSSQKMVYPGLQEPWLHSMYHGAAFQLTQGDQLSTHTDGIPHLVLSPSTVFFGAFAL
chain 2: QDQGGLVTETADPGAQAQQGLGFQKLPEEEPETDLSPGLPAAHLIGAPLKGQGLGWETTKEQAFLTSGTQFSDAEGLALPQDGLYYLYCLVGYRGRAPPGGGDPQGRSVTLRSSLYRAGGAYGPGTPELLLEGAETVTPVLDPARRQGYGPLWYTSVGFGGLVQLRRGERVYVNISHPDMVDFARGKTFFGAVMVG
Turning to B3, the “IC50 for inhibition of pp28 expression (HCMV infected NHDF, western blot)” value in test [14] amounted to 1 nM.

B4: LTα homotrimer (ligand, UniProt P01374 35-205, looked up)
chain: LPGVGLTPSAAQTARQHPKMHLAHSTLKPAAHLIGDPSKQNSLLWRANTDRAFLQDGFSLSNNSLLVPTSGIYFVYSQVVFSGKAYSPKATSSPLYLAHEVQLFSSQYPFHVPLLSSQKMVYPGLQEPWLHSMYHGAAFQLTQGDQLSTHTDGIPHLVLSPSTVFFGAFAL
notes: One entry for the recombinant protein and for the native LTα (23-25 kDa, and the 23 kDa precursor) of the human II-23.D7 cells; also called recombinant LTα; secreted LTα
On to B4, for which the “IC50 (read off the curve)” value in test [15] is about 50 nM; in [16] it was about 30 nM.

B5: Fas:Fc (Fc fusion, UniProt P25445 26-173, looked up)
chain: QVTDINSKGLELRKTVTTVETQNLEGLHHDGQFCHKPCPPGERKARDCTVNGDEPDCVPCQEGKEYTDKAHFSSKCRRCRLCDEGHGLEVEINCTRTQNTKCRCKPNFFCNSTVCEHCDPCTKCEHGIIKECTLTSNTKCKEEGSRSN
notes: not shown: Fc region of human IgG1
In the case of B5, the binding result in [17] is on record as “no binding”.
